Measurements taken from US20060134087A1, “ITI-D1 Kunitz domain mutants as hNE inhibitors” (Dyax Corp., priority 1988, published 2006).
Entries after “also recorded” stand apart in the source; their conditions may differ. Read-outs that look alike come from different tables or passages of the source.

Experiments:
[1] = biological target: T1, Elastase (porcine pancreas) (Sus scrofa, UniProt P00772); conditions: BPTI P1 derivatives, cited from earlier work
T1 construct: host or cells: porcine pancreas
T1 sequence (P00772 27-266): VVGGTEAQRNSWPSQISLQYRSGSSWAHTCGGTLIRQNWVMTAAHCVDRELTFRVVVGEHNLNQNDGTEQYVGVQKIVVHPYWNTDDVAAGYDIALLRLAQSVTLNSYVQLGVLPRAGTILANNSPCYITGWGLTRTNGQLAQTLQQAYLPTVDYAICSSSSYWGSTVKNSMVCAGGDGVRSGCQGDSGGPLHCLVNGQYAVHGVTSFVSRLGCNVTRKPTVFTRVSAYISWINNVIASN

hCG = biological target: T2, hCG (Homo sapiens, UniProt P08311); conditions: cited from earlier work
T2 sequence (P08311 21-255): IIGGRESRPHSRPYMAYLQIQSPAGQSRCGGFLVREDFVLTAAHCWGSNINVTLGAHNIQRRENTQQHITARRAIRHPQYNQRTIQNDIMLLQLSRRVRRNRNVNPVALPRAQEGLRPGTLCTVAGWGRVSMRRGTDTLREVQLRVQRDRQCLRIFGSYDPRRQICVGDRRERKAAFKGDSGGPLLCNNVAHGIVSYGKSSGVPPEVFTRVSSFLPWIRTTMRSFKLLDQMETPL

hNE [2] = biological target: T3, hNE (Homo sapiens, UniProt P08246); assay: Kinetic on-rate of inhibitors reacting with hNE (progressive inhibition); type: biochemical
T3 sequence (P08246 30-267): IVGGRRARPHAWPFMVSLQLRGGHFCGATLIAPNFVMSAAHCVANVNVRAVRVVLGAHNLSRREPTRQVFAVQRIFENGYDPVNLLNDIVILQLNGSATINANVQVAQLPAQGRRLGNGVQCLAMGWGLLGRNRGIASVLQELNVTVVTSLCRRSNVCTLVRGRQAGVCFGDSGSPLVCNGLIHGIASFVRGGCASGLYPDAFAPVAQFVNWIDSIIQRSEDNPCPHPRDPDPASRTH
Experimental: The kinetic on-rates for the inhibitors reacting with hNE (kon) were determined from measurements of progressive inhibition of substrate hydrolytic activity by hNE following addition of inhibitor. For these experiments, a known concentration of inhibitor was added to a solution of hNE (0.847 nM) and substrate (25 μM) in 2 ml of reaction buffer in a plastic fluorescence cuvette. The change in fluorescence was recorded continuously following addition of the inhibitor. […] The enzymatic rate at selected times following addition of the inhibitor was determined from the slope of the tangent to the fluorescence time course at that time.
The kinetic constant kon for EPI-HNE-2 reacting with hNE was determined as follows. EPI-HNE-2 at 1.3 nM was added to buffer containing 0.867 nM hNE (I:E=1.5:1) at time 0. Measured percent residual activity was recorded as a function of time after addition of inhibitor. A least-squares fit program was used to obtain the value of kon=4.0×10^6 M^−1s^−1.
The kinetic off rate, koff, is calculated from the measured values of Ki and kon as: […] The values from such measurements are included in Table 30. The EPI-HNE proteins are small, high affinity, fast acting inhibitors of hNE. B. Specificity.

hNE [3] = biological target: T3, hNE; assay: Resistance to oxidative inactivation by Chloramine-T, residual hNE-inhibition activity; type: physicochemical; conditions: for Percent Residual hNE-Inhibitory Activity: 20 minutes at RT
Experimental: At the end of the incubation period, the oxidation reactions were quenched by adding methionine to a final concentration of 4 mM. After a further 10 minute incubation, the quenched reactions were diluted and assayed for residual inhibitor activity in our standard hNE-inhibition assay.
Inhibitors were incubated in the presence of Chloramine-T at the molar ratios indicated for 20 minutes at RT. Oxidation reactions were quenched by adding methionine to a final concentration of 4 mM. Residual hNE-inhibition activity remaining in the quenched reactions is shown as a percentage of the activity observed with no added oxidant.

hNE [4] = biological target: T3, hNE; assay: pH stability, residual hNE inhibitory activity; type: physicochemical; conditions: 37° C., 18 hours; for Percent Residual hNE Inhibitory Activity: 1 μM protein
Experimental: The stability of the proteins to exposure to pH conditions in the range of pH 1 to pH 10 was assessed by maintaining the inhibitors in buffers of defined pH at 37° C. for 18 hours and determining the residual hNE inhibitory activity in the standard hNE-inhibition assay. Proteins were incubated at a concentration of 1 μM. The buffers shown in Table 4 were formulated as described (STOL90) and used in the pH ranges indicated: […]
Proteins were incubated at 37° C. for 18 hours in buffers of defined pH (see text). In all cases protein concentrations were 1 μM. At the end of the incubation period, aliquots of the reactions were diluted and residual hNE-inhibition activity determined.

hNE [5] = biological target: T3, hNE; assay: Temperature stability, residual inhibitory activity for hNE; type: physicochemical; set-up: Residual hNE Inhibitory Activity: unit not given here; conditions: for Residual hNE Inhibitory Activity: 18 hours, pH 7.0, 1 μM protein
Experimental: The stability of EPI-HNE proteins to temperatures in the range 0° C. to 95° C. was assessed by incubating the inhibitors for thirty minutes at various temperatures and determining residual inhibitory activity for hNE. In these experiments, protein concentrations were 1 μM in phosphate buffer at pH=7. As is shown in Table 40, the four inhibitors are quite temperature stable.
Proteins were incubated at the stated temperature for 18 hours in buffer at pH 7.0. In all cases protein concentrations were 1 μM. At the end of the incubation period, aliquots of the reactions were diluted and residual hNE-inhibition activity determined.

[6] = biological target: T4, Trypsin (bovine pancreas) (Bos taurus, UniProt P00760); conditions: BPTI P1 derivatives; read-out: Dissociation constant (symbol); cited from earlier work
T4 construct: host or cells: bovine pancreas
T4 sequence (P00760 24-246): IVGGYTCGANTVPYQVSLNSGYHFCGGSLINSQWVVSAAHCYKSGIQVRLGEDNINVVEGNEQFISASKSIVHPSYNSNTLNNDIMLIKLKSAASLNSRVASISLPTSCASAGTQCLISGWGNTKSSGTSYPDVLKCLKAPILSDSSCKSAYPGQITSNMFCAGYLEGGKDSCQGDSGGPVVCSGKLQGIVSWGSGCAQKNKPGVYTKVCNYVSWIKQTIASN

[7] = biological target: T5, Chymotrypsin (bovine pancreas) (Bos taurus, UniProt P00766); conditions: BPTI P1 derivatives; read-out: Dissociation constant (symbol); cited from earlier work
T5 construct: host or cells: bovine pancreas

[8] = biological target: T6, Elastase (human leukocytes) (Homo sapiens, UniProt P08246); conditions: BPTI P1 derivatives; read-out: Dissociation constant; cited from earlier work
T6 construct: host or cells: human leukocytes
T6 sequence (P08246 30-267): T3 sequence (P08246 30-267)

[9] = read-out: Dissociation constant

Bovine pancreatic trypsin inhibitor [BPTI]
Kd ([1]; read-out: Dissociation constant (symbol)): > 3500 nM
inhibition of Cathepsin-G (hCG; SWAI88, ODOM90): lacks
binding of hCG (hCG): does not significantly bind hCG

EPI-HNE-4: EPI-HNE-3 with substitution A3E; SEQ ID NO 027 (EACNLPIVRGPCIAFFPRWAFDAVKGKCVLFPYGGCQGNGNKFYSEKECREYCGVP; Epi-HNE-4)
kon (hNE [2]; [hNE] = 8.47 × 10^−10 molar): 10.6 10^6/M/s
koff (hNE [2]; calculated from koff = KD × kon): 49. 10^−6/s
Percent Residual hNE-Inhibitory Activity (hNE [3]; Molar Ratio CHL-T:Inhibitor 0): 100%
Percent Residual hNE-Inhibitory Activity (hNE [3]; Molar Ratio CHL-T:Inhibitor 1.0): 100%
Percent Residual hNE-Inhibitory Activity (hNE [3]; Molar Ratio CHL-T:Inhibitor 3.0): 100%
Percent Residual hNE-Inhibitory Activity (hNE [3]; Molar Ratio CHL-T:Inhibitor 5.0): 100%
Percent Residual hNE-Inhibitory Activity (hNE [3]; Molar Ratio CHL-T:Inhibitor 10.): 104%
Percent Residual hNE-Inhibitory Activity (hNE [3]; Molar Ratio CHL-T:Inhibitor 30.): 100%
Percent Residual hNE-Inhibitory Activity (hNE [3]; Molar Ratio CHL-T:Inhibitor 50.): 100%
Percent Residual hNE-Inhibitory Activity (hNE [3]; Molar Ratio CHL-T:Inhibitor .50): 100%
hNE-inhibition activity after exposure to Chloramine-T (hNE [3]; all molar ratios tested (up to 50:1 for EPI-HNE-3 and EPI-HNE-4)): retain essentially complete hNE-inhibition activity
pH stability (hNE [4]; pH 1 to pH 10, 1 μM): stable when incubated at low pH, but showed some loss of activity at high pH; also recorded: retains almost full activity to pH 8.5
Percent Residual hNE Inhibitory Activity (hNE [4]; Incubation pH 1.0): 98%
Percent Residual hNE Inhibitory Activity (hNE [4]; Incubation pH 2.0): 100%
Percent Residual hNE Inhibitory Activity (hNE [4]; Incubation pH 3.0): 96%
Percent Residual hNE Inhibitory Activity (hNE [4]; Incubation pH 4.0): 94%
Percent Residual hNE Inhibitory Activity (hNE [4]; Incubation pH 5.5): 109%
Percent Residual hNE Inhibitory Activity (hNE [4]; Incubation pH 6.0): 99%
Percent Residual hNE Inhibitory Activity (hNE [4]; Incubation pH 6.5): 100%
Percent Residual hNE Inhibitory Activity (hNE [4]; Incubation pH 7.0): 93%
Percent Residual hNE Inhibitory Activity (hNE [4]; Incubation pH 7.5): 109%
Percent Residual hNE Inhibitory Activity (hNE [4]; Incubation pH 8.0): 83%
Percent Residual hNE Inhibitory Activity (hNE [4]; Incubation pH 8.5): 86%
Percent Residual hNE Inhibitory Activity (hNE [4]; Incubation pH 9.4): 40%
Percent Residual hNE Inhibitory Activity (hNE [4]; Incubation pH 10.0): 34%
Residual hNE Inhibitory Activity (hNE [5]; Temperature 0 ° C.): 100
Residual hNE Inhibitory Activity (hNE [5]; Temperature 23 ° C.): 103
Residual hNE Inhibitory Activity (hNE [5]; Temperature 37 ° C.): 98
Residual hNE Inhibitory Activity (hNE [5]; Temperature 55 ° C.): 98
Residual hNE Inhibitory Activity (hNE [5]; Temperature 69 ° C.): 82
Residual hNE Inhibitory Activity (hNE [5]; Temperature 85 ° C.): 63
Residual hNE Inhibitory Activity (hNE [5]; Temperature 95 ° C.): 48
temperature below which full inhibitory activity is maintained (hNE [5]; thirty minutes, 1 μM, phosphate buffer pH=7): below 65 °C

alanine
Kd [6]: ≥ 3500 nM
Kd [7]: > 3500 nM
Kd [1, 9]: 28 nM
Kd [8]: 2.5 nM

valine
Kd [6]: > 3500 nM
Kd [7]: > 3500 nM
Kd [1, 9]: 57 nM
Kd [8]: 0.11 nM
